# Key:
# [1] = biological target: GST-pre-S1 (1st to 56th amino acids) protein (hepatitis B virus) [GST: P08515]; assay: competitive ELISA and BLI (Octet Red)
# [2] = biological target: GST-pre-S1 (1st to 56th amino acids) protein (hepatitis B virus) [GST: P08515]; assay: BLI (Octet Red), antibody captured on anti-human Fc tip, GST-pre-S1 in solution
# Sequence of GST-pre-S1 (1st to 56th amino acids) protein (hepatitis B virus) [GST: P08515] (P08515 whole entry): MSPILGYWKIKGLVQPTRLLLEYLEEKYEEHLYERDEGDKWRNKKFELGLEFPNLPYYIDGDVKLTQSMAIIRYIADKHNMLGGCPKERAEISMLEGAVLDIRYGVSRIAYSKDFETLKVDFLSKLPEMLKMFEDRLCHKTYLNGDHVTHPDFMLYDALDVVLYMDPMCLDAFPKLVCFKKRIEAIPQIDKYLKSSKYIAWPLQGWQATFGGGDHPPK
binder,measurement,setting,value
"humanized antibody HzKR127-3.1 (antibody, V domains shown) VH: QVQLQQSGAEVKKPGASVKVSCKASGYTFTSSWMNWVRQAPGQGLEWMGRIYPGDGDTNYAQKFQGRVTMTADKSTSTVYMELSSLRSEDTAVYYCAREYAEAYWGQGTLVTVSS VL: DIVMTQTPLSLSVTPGQPASISCKSSQSLLYSNGKTYLNWLLQKPGQPPQRLIYLVSNRDSGVPDRFSGSGSGTDFTLKISRVEAEDVGVYYCVQGTHFPQTFGGGTKVEIKR",fold higher affinity than HzKR127-3,[1],4.9 fold
same,Kd,[2],0.813 nM
same,koff,[2],4.13e-05 s⁻¹
same,kon,[2],50800 M⁻¹ s⁻¹
